Laboratory results published in article PMC7865074, “Role of PDZ-binding motif from West Nile virus NS5 protein on viral replication” (Scientific Reports, 2021).
Ends that are not written are not given here.

B1: SH3 and multiple ankyrin repeat domains protein 1, PDZ domain (holdup construct) (domain or fragment, human, UniProt Q9Y566 663-757, looked up)
chain: TVLLQKKDSEGFGFVLRGAKAQTPIEEFTPTPAFPALQYLESVDEGGVAWRAGLRMGDFLIEVNGQNVVKVGHRQVVNMIRQGGNTLMVKVVMVT
notes: also called SHANK1; source: E. coli, PDZome V.2 library, high-throughput expression
B2: PDZ and LIM domain protein 1, PDZ domain (holdup construct) (domain or fragment, human, UniProt O00151 3-85, looked up)
chain: TQQIDLQGPGPWGFRLVGGKDFEQPLAISRVTPGSKAALANLCIGDVITAIDGENTSNMTHLEAQNRIKGCTDNLTLTVARSE
notes: also called PDLIM1; source: E. coli, PDZome V.2 library, high-throughput expression
B3: Rho GTPase-activating protein 21, PDZ domain (holdup construct) (domain or fragment, human, UniProt Q5T5U3 50-159, looked up)
chain: TVTLKRTSQGFGFTLRHFIVYPPESAIQFSYKDEENGNRGGKQRNRLEPMDTIFVKQVKEGGPAFEAGLCTGDRIIKVNGESVIGKTYSQVIALIQNSDTTLELSVMPKD
notes: also called ARHGAP21; source: E. coli, PDZome V.2 library, high-throughput expression
B4: Zona Occludens 3; Tight Junction Protein 3, PDZ domain 2 (holdup construct) (domain or fragment, human, UniProt O95049 195-272, looked up)
chain: SVLVKRRDSEEFGVKLGSQIFIKHITDSGLAARHRGLQEGDLILQINGVSSQNLSLNDTRRLIEKSEGKLSLLVLRDR
notes: also called TJP3_2; source: E. coli, PDZome V.2 library, high-throughput expression
B5: Membrane-associated guanylate kinase, WW and PDZ domain-containing protein 2, PDZ domain 2 (holdup construct) (domain or fragment, human, UniProt Q86UL8 426-510, looked up)
chain: STTLKKSNMGFGFTIIGGDEPDEFLQVKSVIPDGPAAQDGKMETGDVIVYINEVCVLGHTHADVVKLFQSVPIGQSVNLVLCRGY
notes: also called MAGI2_2; source: E. coli, PDZome V.2 library, high-throughput expression
B6: PDZ domain-containing protein 4, PDZ domain (holdup construct) (domain or fragment, human, UniProt Q76G19 130-214, looked up)
chain: EVELYKSSHRDKLGLMVCYRTDDEEDLGIYVGEVNPNSIAAKDGRIREGDRIIQINGVDVQNREEAVAILSQEENTNISLLVARP
notes: also called PDZD4; source: E. coli, PDZome V.2 library, high-throughput expression
B7: Beta-1-syntrophin, PDZ domain (holdup construct) (domain or fragment, human, UniProt Q13884 112-195, looked up)
chain: GVKVLKQELGGLGISIKGGKENKMPILISKIFKGLAADQTQALYVGDAILSVNGADLRDATHDEAVQALKRAGKEVLLEVKYMR
notes: also called SNTB1; source: E. coli, PDZome V.2 library, high-throughput expression
B8: Rho guanine nucleotide exchange factor 12, PDZ domain (holdup construct) (domain or fragment, human, UniProt Q9NZN5 72-151, looked up)
chain: CVIIQKDDNGFGLTVSGDNPVFVQSVKEDGAAMRAGVQTGDRIIKVNGTLVTHSNHLEVVKLIKSGSYVALTVQGRPPGS
notes: also called ARHGEF12; source: E. coli, PDZome V.2 library, high-throughput expression
B9: Na(+)/H(+) exchange regulatory cofactor NHE-RF2, PDZ domain 1 (holdup construct) (domain or fragment, human, UniProt Q15599 11-90, looked up)
chain: LCRLVRGEQGYGFHLHGEKGRRGQFIRRVEPGSPAEAAALRAGDRLVEVNGVNVEGETHHQVVQRIKAVEGQTRLLVVDQ
notes: also called NHERF2_1; source: E. coli, PDZome V.2 library, high-throughput expression
B10: PDZ domain-containing RING finger protein 3, PDZ domain 1 (holdup construct) (domain or fragment, human, UniProt Q9UPQ7 249-339, looked up)
chain: TLVLHRDSGSLGFNIIGGRPSVDNHDGSSSEGIFVSKIVDSGPAAKEGGLQIHDRIIEVNGRDLSRATHDQAVEAFKTAKEPIVVQVLRRT
notes: also called PDZRN3_1; source: E. coli, PDZome V.2 library, high-throughput expression
B11: Protein scribble homolog, PDZ domain 3 (holdup construct) (domain or fragment, human, UniProt Q14160 1004-1093, looked up)
chain: EIRLPRAGGPLGLSIVGGSDHSSHPFGVQEPGVFISKVLPRGLAARSGLRVGDRILAVNGQDVRDATHQEAVSALLRPCLELSLLVRRDP
notes: also called SCRIB_3; source: E. coli, PDZome V.2 library, high-throughput expression
B12: Synaptojanin-2-binding protein, PDZ domain (holdup construct) (domain or fragment, human, UniProt P57105 13-100, looked up)
chain: EINLTRGPSGLGFNIVGGTDQQYVSNDSGIYVSRIKENGAAALDGRLQEGDKILSVNGQDLKNLLHQDAVDLFRNAGYAVSLRVQHRL
notes: also called SYNJ2BP; source: E. coli, PDZome V.2 library, high-throughput expression
B13: Na(+)/H(+) exchange regulatory cofactor NHE-RF2, PDZ domain 2 (holdup construct) (domain or fragment, human, UniProt Q15599 150-230, looked up)
chain: RLCHLRKGPQGYGFNLHSDKSRPGQYIRSVDPGSPAARSGLRAQDRLIEVNGQNVEGLRHAEVVASIKAREDEARLLVVDP
notes: also called NHERF2_2; source: E. coli, PDZome V.2 library, high-throughput expression
B14: Microtubule-associated serine/threonine-protein kinase 1, PDZ domain (holdup construct) (domain or fragment, human, UniProt Q9Y2H9 967-1055, looked up)
chain: PITIQRSGKKYGFTLRAIRVYMGDTDVYSVHHIVWHVEEGGPAQEAGLCAGDLITHVNGEPVHGMVHPEVVELILKSGNKVAVTTTPFE
notes: also called MAST1; source: E. coli, PDZome V.2 library, high-throughput expression
B15: 26S proteasome non-ATPase regulatory subunit 9, PDZ domain (holdup construct) (domain or fragment, human, UniProt O00233 108-195, looked up)
chain: QARDMAEAHKEAMSRKLGQSESQGPPRAFAKVNSISPGSPASIAGLQVDDEIVEFGSVNTQNFQSLHNIGSVVQHSEGKPLNVTVIRR
notes: also called PSMD9; source: E. coli, PDZome V.2 library, high-throughput expression
B16: SH3 and multiple ankyrin repeat domains protein 2, PDZ domain (holdup construct) (domain or fragment, human, UniProt Q9UPX8 626-720, looked up)
chain: TVVLQKKDNEGFGFVLRGAKADTPIEEFTPTPAFPALQYLESVDEGGVAWQAGLRTGDFLIEVNNENVVKVGHRQVVNMIRQGGNHLVLKVVTVT
notes: also called SHANK2; source: E. coli, PDZome V.2 library, high-throughput expression
B17: Disks large homolog 1, PDZ domain 2 (holdup construct) (domain or fragment, human, UniProt Q12959 319-405, looked up)
chain: EIKLIKGPKGLGFSIAGGVGNQHIPGDNSIYVTKIIEGGAAHKDGKLQIGDKLLAVNNVCLEEVTHEEAVTALKNTSDFVYLKVAKP
notes: also called DLG1_2; source: E. coli, PDZome V.2 library, high-throughput expression

Molecular target: T1, biotinylated WNV NS5 PBM peptide (West Nile virus, also: biotinyl group, end not given here)
T1 construct: bait of the holdup assay; also called 13-mer peptide; source: synthetic peptide (solid phase, Fmoc; Proteogenix)
T1 peptide: RYEDTTLVEDTVL
Assay: holdup assay (automated high-throughput chromatography); biotinylated NS5 PBM peptide as bait against 259 human PDZ domains expressed in E. coli; read-out binding intensity (BI), mean of replicates; BI threshold 0.2 for a significant interaction

Row | Binder | BI (holdup binding intensity)
1 | B1 | 0.39
2 | B2 | < 0.15
3 | B3 | 0.3
4 | B4 | 0.23
5 | B5 | 0.38
6 | B6 | < 0.15
7 | B7 | 0.22
8 | B8 | 0.25
9 | B9 | 0.21
10 | B10 | 0.35
11 | B11 | 0.33
12 | B12 | 0.21
13 | B13 | 0.74
14 | B14 | 0.52
15 | B15 | < 0.15
16 | B16 | 0.39
17 | B17 | 0.22
